In article PMC4931022, “Arginine demethylation is catalysed by a subset of JmjC histone lysine demethylases” (Nature Communications, 2016) one finds apparent KM, formaldehyde dehydrogenase-coupled demethylation assay data, which are given here for ten substances.

Assay [1] concerns the target T1, KDM5C(1-765) (human) (UniProt P41229).
T1 sequence: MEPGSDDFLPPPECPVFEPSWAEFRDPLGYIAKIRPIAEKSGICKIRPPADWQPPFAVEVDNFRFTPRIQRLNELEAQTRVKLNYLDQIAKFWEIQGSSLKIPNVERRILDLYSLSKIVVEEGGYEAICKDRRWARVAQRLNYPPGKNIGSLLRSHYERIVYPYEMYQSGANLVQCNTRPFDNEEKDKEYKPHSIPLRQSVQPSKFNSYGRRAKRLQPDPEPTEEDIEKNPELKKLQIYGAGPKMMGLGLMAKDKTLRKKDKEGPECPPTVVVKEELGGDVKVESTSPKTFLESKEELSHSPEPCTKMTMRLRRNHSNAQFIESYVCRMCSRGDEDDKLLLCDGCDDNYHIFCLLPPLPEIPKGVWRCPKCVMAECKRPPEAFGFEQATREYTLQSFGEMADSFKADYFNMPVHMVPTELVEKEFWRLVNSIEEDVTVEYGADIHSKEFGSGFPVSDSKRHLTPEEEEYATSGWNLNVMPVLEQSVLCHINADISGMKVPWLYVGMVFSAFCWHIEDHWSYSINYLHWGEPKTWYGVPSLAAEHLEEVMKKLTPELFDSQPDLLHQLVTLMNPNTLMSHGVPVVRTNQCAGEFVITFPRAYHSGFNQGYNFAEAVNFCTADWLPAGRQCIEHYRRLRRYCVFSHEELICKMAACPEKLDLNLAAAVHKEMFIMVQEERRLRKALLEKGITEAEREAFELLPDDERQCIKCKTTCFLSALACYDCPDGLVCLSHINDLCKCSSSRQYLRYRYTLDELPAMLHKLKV

The target of assay [2] is T2, KDM4E(1-337) (human) (UniProt B2RXH2).
T2 sequence: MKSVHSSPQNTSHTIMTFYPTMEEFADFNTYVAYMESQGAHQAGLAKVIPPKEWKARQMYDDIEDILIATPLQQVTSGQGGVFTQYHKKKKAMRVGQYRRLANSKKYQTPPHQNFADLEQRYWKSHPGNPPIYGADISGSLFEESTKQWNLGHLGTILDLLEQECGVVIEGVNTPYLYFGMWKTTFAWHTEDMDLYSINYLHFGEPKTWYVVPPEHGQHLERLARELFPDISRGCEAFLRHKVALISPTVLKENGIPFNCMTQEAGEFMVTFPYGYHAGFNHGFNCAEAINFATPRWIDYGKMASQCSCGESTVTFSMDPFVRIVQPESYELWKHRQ

The target in assay [3] is T3, KDM3A(515-1,317) (human) (UniProt Q9Y4C1).
T3 sequence: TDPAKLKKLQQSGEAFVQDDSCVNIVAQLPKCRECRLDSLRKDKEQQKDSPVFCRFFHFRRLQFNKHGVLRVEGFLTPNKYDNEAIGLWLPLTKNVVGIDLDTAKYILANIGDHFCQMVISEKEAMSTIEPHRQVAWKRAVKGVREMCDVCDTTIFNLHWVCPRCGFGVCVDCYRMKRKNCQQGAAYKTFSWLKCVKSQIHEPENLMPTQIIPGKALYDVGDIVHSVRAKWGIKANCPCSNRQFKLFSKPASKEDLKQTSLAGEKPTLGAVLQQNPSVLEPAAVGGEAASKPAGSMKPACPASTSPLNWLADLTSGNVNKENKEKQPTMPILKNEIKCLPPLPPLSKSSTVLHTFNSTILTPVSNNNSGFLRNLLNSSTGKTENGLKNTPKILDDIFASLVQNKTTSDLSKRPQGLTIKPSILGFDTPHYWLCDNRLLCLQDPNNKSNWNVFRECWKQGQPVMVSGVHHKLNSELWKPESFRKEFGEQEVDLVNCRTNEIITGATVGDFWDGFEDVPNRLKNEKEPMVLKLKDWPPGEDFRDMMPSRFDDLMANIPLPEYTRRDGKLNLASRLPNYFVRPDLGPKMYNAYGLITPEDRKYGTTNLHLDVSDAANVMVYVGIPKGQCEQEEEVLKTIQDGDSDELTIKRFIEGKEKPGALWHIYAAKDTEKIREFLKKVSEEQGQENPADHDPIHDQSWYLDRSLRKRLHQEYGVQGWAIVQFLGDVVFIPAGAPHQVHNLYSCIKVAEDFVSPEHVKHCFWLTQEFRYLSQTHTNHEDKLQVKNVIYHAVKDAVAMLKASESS

Assay [4] deals with KDM6B(1,141-1,590) (human) (UniProt O15054).
Chain of KDM6B(1,141-1,590) (human) (O15054 1141-1590): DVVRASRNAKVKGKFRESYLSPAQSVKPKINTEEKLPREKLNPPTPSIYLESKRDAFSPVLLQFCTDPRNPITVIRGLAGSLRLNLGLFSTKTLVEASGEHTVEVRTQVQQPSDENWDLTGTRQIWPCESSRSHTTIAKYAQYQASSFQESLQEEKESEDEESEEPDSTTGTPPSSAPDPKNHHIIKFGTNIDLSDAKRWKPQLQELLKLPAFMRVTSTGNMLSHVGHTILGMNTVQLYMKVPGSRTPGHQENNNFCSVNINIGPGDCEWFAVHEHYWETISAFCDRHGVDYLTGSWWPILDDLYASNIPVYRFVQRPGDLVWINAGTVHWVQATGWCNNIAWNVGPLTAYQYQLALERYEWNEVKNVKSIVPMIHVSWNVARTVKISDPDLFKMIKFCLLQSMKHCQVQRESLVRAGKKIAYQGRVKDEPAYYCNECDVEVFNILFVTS

Consider “H3(1-15)K4Rme2a (from UniProt P68431 2-16) (peptide)”, for which, in assay [1], the apparent KM, formaldehyde dehydrogenase-coupled demethylation assay worked out at 29 µM.
Still for that read-out and setting: with “H3(1-15)K4Rme2s (from UniProt P68431 2-16) (peptide)” the figure was 21.1 µM.
Regarding “H3(1-15)K4me3 (from UniProt P68431 2-16) (peptide)”, the apparent KM, formaldehyde dehydrogenase-coupled demethylation assay in assay [1] came out at 7.6 µM.
On to “H3(1-15)K9Rme2a (from UniProt P68431 2-16) (peptide)”, for which the apparent KM, formaldehyde dehydrogenase-coupled demethylation assay in assay [2] was found to be 66 µM; in assay [3], 11.6 µM.
For “H3(1-15)K9Rme2s (from UniProt P68431 2-16) (peptide)” the same measures were 101 µM and 23.7 µM.
For “H3(1-15)K9Rme (from UniProt P68431 2-16) (peptide)” the same measures were 169 µM and 12.1 µM.
With “H3(1-15)K9me2 (from UniProt P68431 2-16) (peptide)”, the apparent KM, formaldehyde dehydrogenase-coupled demethylation assay in assay [3] is 44.5 µM.
Consider “H3(1-15)K9me3 (from UniProt P68431 2-16) (peptide)”, for which the apparent KM, formaldehyde dehydrogenase-coupled demethylation assay in assay [2] was determined as 17.8 µM.
For the substance “H3(14-34)K27Rme2a (from UniProt P68431 15-35) (peptide)”, the apparent KM, formaldehyde dehydrogenase-coupled demethylation assay in assay [4] was 676 µM.
The same measure, in the same setting: then “H3(14-34)K27me3 (from UniProt P68431 15-35) (peptide)”, with 6.7 µM.
